In the RNAGym collection of RNA variant scans (doi:10.1093/nar/gkz1192):

B1: CPEB3 Ribozyme (parent)
chain: UAACAGGGGGCCACAGCAGAAGCGUUCACGUCGCAGCCCCUGUCAGAUUCUGGUGAAUCUGCGAAUUCUGCUGUAUAUCUC

Variants of: B1
Experiment: self-cleavage, relative activity (ratio to wild type); higher = more cleavage; in vitro, sequencing
Method in brief: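 Relative activity was defined as the cleaved/total read fraction for a variant divided by the same fraction for the unmutated ribozyme. CPEB3 self-cleaving ribozyme libraries were made by rounds of error-prone PCR, barcoded, and transcribed in vitro with T7 RNA polymerase for 5 hours at 37°C, and cleavage ran through transcription plus a 15 min DNase I step before EDTA. Illumina sequencing of template-switched reverse transcripts gave the reads, and DNA sequencing mapped the barcodes. Averages come from three batches, using variants with at least 5 reads.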

Point of comparison: U80C C81U, self-cleavage 1.01. Against it:
- U74C A77G — higher, 1.32
- U74C A77U — higher, 1.26
- U74C C79A — higher, 1.31
- U74C C79G — higher, 1.45
- U74C C81A — higher, 1.26
- U74C C81U — higher, 1.23
- U74C U76A — higher, 1.3
- U74C U76C — higher, 1.2
- U74C U78A — higher, 1.29
- U74C U78C — higher, 1.3
- U74C U78G — higher, 1.17
- U74C U80A — higher, 1.28
- U74C U80C — higher, 1.24
- U74G — higher, 1.24
- U74G A75G — higher, 1.26
- U74G A75U — higher, 1.29
- U74G U76C — higher, 1.16
- U74G U78A — higher, 1.26
- U74G U78C — higher, 1.26
- A75C — higher, 1.2
- A75C U76G — higher, 1.25
- A75C U78C — higher, 1.15
- A75C U80C — higher, 1.18
- A75G — the same, 1.01
- A75G A77G — lower, 0.57
- A75G A77U — higher, 1.05
- A75G C79U — higher, 1.18
- A75G C81A — higher, 1.04
- A75G C81U — higher, 1.18
- A75G U76A — higher, 1.05
- A75G U76C — lower, 0.94
- A75G U76G — lower, 0.43
- A75G U78A — higher, 1.3
- A75G U78C — lower, 0.67
- A75G U78G — lower, 0.62
- A75G U80A — higher, 1.08
- A75G U80C — lower, 0.65
- A75G U80G — higher, 1.02
- A75U — higher, 1.15
- A75U A77G — higher, 1.18
- A75U A77U — higher, 1.2
- A75U U76C — higher, 1.29
- A75U U78A — higher, 1.11
- A75U U78C — higher, 1.15
- A75U U80A — higher, 1.25
- A75U U80C — higher, 1.1
- A75U U80G — higher, 1.26
- U76A — higher, 1.14
- U76A A77G — the same, 1.01
- U76A A77U — the same, 1.01
- U76A C79A — higher, 1.2
- U76A U78A — higher, 1.09
- U76A U78C — higher, 1.1
- U76A U78G — higher, 1.37
- U76A U80A — higher, 1.17
- U76A U80C — higher, 1.23
- U76C — higher, 1.1
- U76C A77G — higher, 1.07
- U76C A77U — higher, 1.07
- U76C C79G — higher, 1.22
- U76C C81A — higher, 1.24
- U76C U78A — higher, 1.19
- U76C U78C — the same, 1.01
- U76C U80A — higher, 1.26
- U76C U80C — higher, 1.13
- U76C U80G — higher, 1.24
- U76G — lower, 0.9
- U76G A77U — lower, 0.75
- U76G C81A — higher, 1.14
- A77C — lower, 0.98
- A77C U80A — higher, 1.05
- A77G — higher, 1.06
- A77G C81A — higher, 1.2
- A77G U78A — higher, 1.17
- A77G U78C — lower, 0.82
- A77G U78G — lower, 0.9
- A77G U80A — higher, 1.18
- A77G U80C — higher, 1.12
- A77G U80G — higher, 1.21
- A77U — higher, 1.11
- A77U C79A — higher, 1.26
- A77U C81A — higher, 1.31
- A77U U78A — lower, 0.9
- A77U U78C — higher, 1.05
- A77U U80A — higher, 1.18
- A77U U80C — higher, 1.18
- A77U U80G — higher, 1.26
- U78A — higher, 1.12
- U78A C79U — higher, 1.29
- U78A C81U — lower, 0.8
- U78A U80A — higher, 1.23
- U78A U80C — higher, 1.07
- U78A U80G — higher, 1.29
- U78C — higher, 1.02
- U78C C79G — higher, 1.18
- U78C C79U — lower, 0.84
- U78C C81A — higher, 1.21
- U78C C81G — higher, 1.25
- U78C C81U — higher, 1.15
- U78C U80A — higher, 1.2
- U78C U80C — lower, 0.82
- U78C U80G — higher, 1.15
- U78G — higher, 1.1
- U78G U80C — lower, 0.94
- C79A — higher, 1.19
- C79A U80C — higher, 1.23
- C79G — higher, 1.13
- C79G U80C — lower, 0.27
- C79U — higher, 1.17
- C79U U80A — higher, 1.24
- U80A — higher, 1.13
- U80A C81U — higher, 1.24
- U80C — higher, 1.08
- U80C C81A — higher, 1.23
- U80G — higher, 1.18
- U80G C81U — higher, 1.39
- C81A — higher, 1.05
- C81G — higher, 1.14
- C81U — higher, 1.18
